Test [1] addresses T1, human CD36 on cells overexpressing human CD36 (human, UniProt P16671 2-472). Kind of test: FACS on cells overexpressing human CD36, % of Binding. As to the method:
For FACS analysis, cells were trypsinized, collected in a 15 mL tube and diluted in washing buffer (2% FBS in PBS). Cells were then centrifuged at 1500 rpm for 5 min at 4° C., supernatant was discarded, and cells were resuspended in fresh washing buffer. Anti-CD36 antibodies were either omitted (control wash buffer treatment) or serially diluted in washing buffer (dilution range up to 100 nM), and then added to the cells. Incubation was performed on ice for 1 hour. Cells were then centrifuged at 1500 rpm for 5 min at 4° C., supernatant was discarded, and cells were resuspended in fresh washing buffer. Finally, cells were incubated with a […] (BV421 Rat Anti-Mouse IgA, Becton Dickinson, reference 743293) diluted 1:100 in washing buffer, washed and analysed by FACS.

The target in test [2] is T2, human CD36 recombinant protein (Sino Biological, reference 10752-H08H) (human, UniProt P16671 30-439).
T2 construct: Bought recombinant protein
T2 sequence (P16671 30-439 limits assumed): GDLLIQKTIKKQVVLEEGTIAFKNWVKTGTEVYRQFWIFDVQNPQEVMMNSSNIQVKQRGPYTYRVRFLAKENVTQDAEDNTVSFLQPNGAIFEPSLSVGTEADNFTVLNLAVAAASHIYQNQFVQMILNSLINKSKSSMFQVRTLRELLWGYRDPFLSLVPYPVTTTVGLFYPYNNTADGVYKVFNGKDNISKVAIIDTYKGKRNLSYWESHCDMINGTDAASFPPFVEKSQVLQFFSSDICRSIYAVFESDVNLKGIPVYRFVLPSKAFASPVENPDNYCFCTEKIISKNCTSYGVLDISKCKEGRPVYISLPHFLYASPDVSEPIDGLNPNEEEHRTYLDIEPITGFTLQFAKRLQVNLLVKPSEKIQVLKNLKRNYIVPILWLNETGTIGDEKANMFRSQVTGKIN
Kind of test: estimated from ELISA, CD36 coated on plate; human CD36 coated on plate. As for the experimental part: (§1) To perform ELISA assays, 96-well ELISA plates were coated over night with human CD36 (Sino Biological, reference 10752-H08H) or mouse CD36 (Sino Biological, reference 50422-M08H) recombinant proteins at a concentration of 0.25 mg/ml. After two washes with PBS, plates were blocked with 4% skimmed milk in PBS for 1 hour at 37° C. Blocking solution was discarded and plates were washed five times with 200 μl/well PBS-Tween20 (0.5%). Primary antibodies were either omitted (control blocking solution treatment) or mixed in blocking solution at several dilutions ranging from 0.01 nM to 0.5 μM. The primary antibody solutions were added to the wells and incubated over night at 4° C. After 5 washes with 200 ul/well of PBS-Tween20 (0.5%), plates were incubated for 1 hour at room temperature with a goat anti-mouse HRP-conjugated antibody (Abeam, reference ab97235) diluted 1:2000 in blocking solution. Plates were then washed 5 times with 200 μl/well of PBS-Tween20 (0.5%), incubated with 100 μl/well TMB and detected after 10 minutes, 30 minutes, or 60 minutes with a spectrophotometer at a wave length of 630 nm.

In test [3] the target is T3, mouse CD36 recombinant protein (Sino Biological, reference 50422-M08H) (mouse, UniProt Q08857 30-439).
T3 construct: Bought recombinant protein; also called murine CD36
T3 sequence (Q08857 30-439 limits assumed, stated change not applied): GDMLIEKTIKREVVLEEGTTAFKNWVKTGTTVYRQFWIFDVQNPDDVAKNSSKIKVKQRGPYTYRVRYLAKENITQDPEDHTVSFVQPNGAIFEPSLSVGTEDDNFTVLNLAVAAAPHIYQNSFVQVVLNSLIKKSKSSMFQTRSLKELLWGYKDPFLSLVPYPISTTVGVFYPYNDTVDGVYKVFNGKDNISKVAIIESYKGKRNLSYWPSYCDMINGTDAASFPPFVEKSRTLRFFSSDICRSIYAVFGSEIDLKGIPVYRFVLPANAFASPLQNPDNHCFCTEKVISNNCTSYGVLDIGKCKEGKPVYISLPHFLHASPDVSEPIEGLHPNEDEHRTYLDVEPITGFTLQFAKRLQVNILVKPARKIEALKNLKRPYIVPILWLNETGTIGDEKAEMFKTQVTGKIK
Kind of test: estimated from ELISA, CD36 coated on plate; mouse CD36 coated on plate. As to the method: as §1

The target in test [4] is T3, mouse CD36 recombinant protein (Sino …). Kind of test: ELISA, plate coated with mouse CD36, OD630, panel 'Coating: mouse CD36'. As to the method: as §1
Background: ELISA stands for enzyme-linked immunosorbent assay.

For test [5], the target named is T2, human CD36 recombinant protein (Sino …). Kind of test: SPR Biacore T200, antibody captured on anti-mouse IgA, CD36 analyte, 2-state model. As for the experimental part:
(§2) The affinity of ONA-0-v1, 1G04, and a commercial anti-CD36 antibody (JC63.1) for human CD36 was also measured by surface plasmon resonance (SPR) using a Biacore T200. 1G04 was analysed using a protein A capture surface, with a capture range of 100-150 RU and an antigen titration range of 3.3-333 nM. The mouse antibodies ONA-0-V1 and the commercial anti-CD36 antibody were analysed using an anti-mouse IgA capture surface, with a capture range of 160-180 RU and an antigen titration range of 3.3-333 nM. For each single analysis cycle a titration of five antigen concentrations were injected over the captured antibody and then the dissociation of the complex was measured. A double referencing method was employed in which data from the reference surfaces where no antibody was captured (fc 1 and 3 respectively) were subtracted from the antibody bound capture surface (fc 2 and 4). Blank injections of buffer were run for every antigen titration cycle and then subtracted from analyte injection cycles, to correct for small changes in the antibody capture surface density. All analysis was performed at 25° C., and the sample rack was kept at 6° C. during experimental runs. Each experiment was run at least three times with the mean binding constants generated from at least two independent assays reported. All analysis was performed in PBS-T running buffer at 40 μL/min.

Test [6] has the same target. The test is described as follows: SPR Biacore T200, antibody captured on anti-mouse IgA, CD36 analyte 3.3-333 nM, 1-to-1 model. As for the experimental part:
as §2
In general terms: Surface plasmon resonance follows binding to a sensor surface in real time, without labels.

The target in test [7] is T1, human CD36 on cells overexpressing …. The test is described as follows: FACS on cells overexpressing human CD36, MFI.
For test [8], the target named is T3, mouse CD36 recombinant protein (Sino …). The test is described as follows: ELISA, plate coated with mouse CD36, OD630nm. As for the experimental part:
as §1

For test [9], the target named is T2, human CD36 recombinant protein (Sino …). The test is described as follows: ELISA, plate coated with human CD36, OD630nm. As to the method:
as §1

Test [10] shares this target. The test is described as follows: SPR Biacore T200, antibody captured on protein A, CD36 analyte, 2-state model. As to the method: as §2
For test [11] the target is unchanged. Kind of test: SPR Biacore T200, antibody captured on protein A, CD36 analyte 3.3-333 nM, 1-to-1 model. As for the experimental part: as §2
In test [12] the target is T1, human CD36 on cells overexpressing …. Kind of test: FACS on cells overexpressing human CD36, GeoMFI against Log10 mAb Concentration (nM).
In test [13] the target is T2, human CD36 recombinant protein (Sino …). The test is described as follows: ELISA, plate coated with human CD36, OD630, panel 'Coating: human CD36'; Kd printed beside the 1G04 curve. As to the method: as §1
For test [14], the target named is T3, mouse CD36 recombinant protein (Sino …). Kind of test: ELISA, plate coated with mouse CD36, OD630, panel 'Coating: mouse CD36'; Kd printed beside the 1G04 curve. As for the experimental part:
as §1

T1 sequence (P16671 2-472 limits assumed): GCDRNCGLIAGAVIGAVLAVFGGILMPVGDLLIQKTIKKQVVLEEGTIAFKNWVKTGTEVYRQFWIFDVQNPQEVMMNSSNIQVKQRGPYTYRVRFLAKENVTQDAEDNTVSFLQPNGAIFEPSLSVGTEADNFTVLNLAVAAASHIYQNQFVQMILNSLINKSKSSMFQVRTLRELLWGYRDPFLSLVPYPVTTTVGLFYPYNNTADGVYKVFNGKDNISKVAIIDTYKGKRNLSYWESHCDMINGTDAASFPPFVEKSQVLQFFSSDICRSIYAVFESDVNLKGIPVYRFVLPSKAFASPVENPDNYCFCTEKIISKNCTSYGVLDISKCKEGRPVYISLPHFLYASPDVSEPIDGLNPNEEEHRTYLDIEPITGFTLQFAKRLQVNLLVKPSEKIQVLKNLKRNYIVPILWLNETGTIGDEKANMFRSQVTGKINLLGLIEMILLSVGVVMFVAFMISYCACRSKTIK

B1: ONA-0-v1 anti-CD36 antibody (murine IgA) (antibody)
heavy: QVQLKQSGADLVRPGASVKLSCKASGYTFTDYYINWVKQRPGQGLEWIARIYPGSGNTYYNEKFKGKATLTAEKSSSTAYMQLSSLTSEDSAVYFCARGIGGGFGMDYWGQGTSVTVSSESARNPTIYPLTLPPVLCSDPVIIGCLIHDYFPFGTMNVTWGKSGKDITTVNFPPALASGGRYTMSSQLTLPAVECPEGESVKCSVQHDSNPVQELDVNCSPTPPPPITIPSCQPSLSLQRPALEDLLLGSDASITCTLNGLRNPEGAAFTWEPSTGKDAVQKKAAQNSCGCYSVSSVLPGCAERWNSGASFKCTVTHPESGTLTGTIAKVTVNTFPPQVHLLPPPSEELALNELLSLTCLVRAFNPKEVLVRWLHGNEELSPESYLVFEPLKEPGEGATTYLVTSVLRVSAETWKQGDQYSCMVGHEALPMNFTQKTIDRLSGKPTNVSVSVIMSEGDGICY
light: SIVMTQTPKFLLVSAGDRITITCKASQSVSDDVAWYQQKPGQSPKLLIYYASNRYTGVPDRFTGSGYGTDFTFTISTVQAEDLAVYFCQQDYSSPLTFGAGTKLEIKRADAAPTVSIFPPSSEQLTSGGASVVCFLNNFYPKDINVKWKIDGSERQNGVLNSWTDQDSKDSTYSMSSTLTLTKDEYERHNSYTCEATHKTSTSPIVKSFNRNEC
notes: mouse IgA constant region; produced in HEK 293 cells; also called ONA-0-v1 (IgA); ONA-O-v1 (IgA)
By EC50 (read off the curve) is commonly meant the concentration that produces a half-maximal response. The Kd is a measure of binding affinity in units of concentration. In general, koff refers to the rate constant with which the complex falls apart. One may read the kon as the rate constant with which the complex forms. For the molecule B1, the “EC50 (read off the curve)” value in test [1] is roughly 0.03 nM; in [4], roughly 1 nM. Further, the Kd is roughly 0.04 nM in test [2], roughly 0.1 nM in [3], 8.72 nM in test [5] and 5.85 nM in test [6]. In addition, the koff in [6] was 0.00354 s⁻¹. The kon in [6] was determined as 632000 M⁻¹ s⁻¹.

B2: 1G04 (chimeric ONA-0-v1 IgG1 LALA antibody) (antibody)
heavy: not shown
light: SIVMTQTPKFLLVSAGDRITITCKASQSVSDDVAWYQQKPGQSPKLLIYYASNRYTGVPDRFTGSGYGTDFTFTISTVQAEDLAVYFCQQDYSSPLTFGAGTKLEIKRTVAAPSVFIFPPSDEQLKSGTASVVCLLNNFYPREAKVQWKVDNALQSGNSQESVTEQDSKDSTYSLSSTLTLSKADYEKHKVYACEVTHQGLSSPVTKSFNRGEC
notes: Human IgG1 with the LALA alteration, human kappa light chain; also called 1G04 (IgG1)
For the molecule B2, the “EC50 (read off the curve)” value in test [7] is roughly 0.2 nM; in test [8], roughly 0.3 nM; in test [9], roughly 0.08 nM; in [1], roughly 0.03 nM; in [12] it was roughly 0.4 nM. Moreover, the Kd in test [10] is 2.78 nM; in test [11], 1.74 nM; in [13], 0.04 nM; in [14], 0.1 nM. Moreover, in test [11], the koff stood at 0.000159 s⁻¹. In [11], the kon came to 100000 M⁻¹ s⁻¹.

B3: 1G06 antibody (chimeric ONA-0-v1 IgG1) (antibody)
heavy: QVQLKQSGADLVRPGASVKLSCKASGYTFTDYYINWVKQRPGQGLEWIARIYPGSGNTYYNEKFKGKATLTAEKSSSTAYMQLSSLTSEDSAVYFCARGIGGGFGMDYWGQGTSVTVSSASTKGPSVFPLAPSSKSTSGGTAALGCLVKDYFPEPVTVSWNSGALTSGVHTFPAVLQSSGLYSLSSVVTVPSSSLGTQTYICNVNHKPSNTKVDKKVEPKSCDKTHTCPPCPAPESTRGPSVFLFPPKPKDTLMISRTPEVTCVVVDVSHEDPEVKFNWYVDGVEVHNAKTKPREEQYNSTYRVVSVLTVLHQDWLNGKEYKCKVSNKALPAPIEKTISKAKGQPREPQVYTLPPSRDELTKNQVSLTCLVKGFYPSDIAVEWESNGQPENNYKTTPPVLDSDGSFFLYSKLTVDKSRWQQGNVFSCSVMHEALHNHYTQKSLSLSPGK
light: SIVMTQTPKFLLVSAGDRITITCKASQSVSDDVAWYQQKPGQSPKLLIYYASNRYTGVPDRFTGSGYGTDFTFTISTVQAEDLAVYFCQQDYSSPLTFGAGTKLEIKRTVAAPSVFIFPPSDEQLKSGTASVVCLLNNFYPREAKVQWKVDNALQSGNSQESVTEQDSKDSTYSLSSTLTLSKADYEKHKVYACEVTHQGLSSPVTKSFNRGEC
For the molecule B3, the “EC50 (read off the curve)” value in test [9] was roughly 0.08 nM; in [12], roughly 0.4 nM.

(Values after US20230235073A1 (ONA THERAPEUTICS S L, published 2023).)
